Article PMC10958042

B1: ATGL (PNPLA2, patatin-like phospholipase domain-containing protein 2), human, full length / perilipin-1, mouse (mPlin1) (parent)
chain 1: MFPREKTWNISFAGCGFLGVYYVGVASCLREHAPFLVANATHIYGASAGALTATALVTGVCLGEAGAKFIEVSKEARKRFLGPLHPSFNLVKIIRSFLLKVLPADSHEHASGRLGISLTRVSDGENVIISHFNSKDELIQANVCSGFIPVYCGLIPPSLQGVRYVDGGISDNLPLYELKNTITVSPFSGESDICPQDSSTNIHELRVTNTSIQFNLRNLYRLSKALFPPEPLVLREMCKQGYRDGLRFLQRNGLLNRPNPLLALPPARPHGPEDKDQAVESAQAEDYSQLPGEDHILEHLPARLNEALLEACVEPTDLLTTLSNMLPVRLATAMMVPYTLPLESALSFTIRLLEWLPDVPEDIRWMKEQTGSICQYLVMRAKRKLGRHLPSRLPEQVELRRVQSLPSVPLSCAAYREALPGWMRNNLSLGDALAKWEECQRQLLLGLFCTNVAFPPEALRMRAPADPAPAPADPASPQHQLAGPAPLLSTPAPEARPVIGALGL
chain 2: MSMNKGPTLLDGDLPEQENVLQRVLQLPVVSGTCECFQKTYNSTKEAHPLVASVCNAYEKGVQGASNLAAWSMEPVVRRLSTQFTAANELACRGLDHLEEKIPALQYPPEKIASELKGTISTRLRSARNSISVPIASTSDKVLGATLAGCELALGMAKETAEYAANTRVGRLASGGADLALGSIEKVVEFLLPPDKESAPSSGRQRTQKAPKAKPSLVRRVSTLANTLSRHTMQTTAWALKQGHSLAMWIPGVAPLSSLAQWGASAAMQVVSRRQSEVRVPWLHNLAASQDESHDDQTDTEGEETDDEEEEEESEAEENVLREVTALPNPRGLLGGVVHTVQNTLRNTISAVTWAPAAVLGTVGRILHLTPAQAVSSTKGRAMSLSDALKGVTDNVVDTVVHYVPLPRLSLMEPESEFRDIDNPSAEAERKGSGARPASPESTPRPGQPRGSLRSVRGLSAPSCPGLDDKTEASARPGFLAMPREKPARRVSDSFFRPSVMEPILGRAQYSQLRKKS
B2: ATGL (PNPLA2, patatin-like phospholipase domain-containing protein 2), human, full length / perilipin-5, mouse (mPlin5) (parent)
chain 1: B1 chain 1
chain 2: MDQRGEDTTLAPHSRMSGDQTAQDPGSSLGELDQQNVVNRVVALPLVKATCTAVSSAYNSAKDRHPLLGSACRLAEHCVCSVTTCALDHAQPLLEHLQPQLATVNDLACRGLDKLEEKLPFLQQPSDMVVTSAKDTVAKSVTGMVDLAQRGRRWSGELRRSMSQAMDMVLGKSEKLVDRFLPMTEAELAVLAAEAEGPEVGTVEEQRQQQGYFVRLGSLSARLRHLAYEHSLGKLRQSKHRTQEMLAQLQETLELIQHMQRGASPSPTFHPPKTQELWGSWSPCLENGRSHSEVELETLALSRSLTLELQNAVDALAGCVRGLPPSAQAKVAEVQRSVDALQATFADAHCLGDVAPTALAEGRGSVARAHACVDEFLDLVLRAMPLPWLVGPFAPILVEQSEPLINLATCVDEVVGDPDPRWAHMDWPAQKRAWEAESADPGGQEAEPPRGQGKHTMMPELDF

Variants of: B1
Test: LUMIER: Protein A-ATGL variant and firefly luciferase-partner co-expressed in HEK293T, lysates immunoprecipitated on IgG-coated plates, co-precipitated partner measured as luciferase luminescence
Conditions: with perilipin-1, mouse (mPlin1), transient co-transfection, IgG-coated LUMITRAC plates, 2 h at 4 °C, three PBS washes, Bright-Glo luciferase reagent, triplicates per assay, two …, parent: 0.26, not graded, scale: log2 fold change of co-immunoprecipitated luminescence relative to wild-type ATGL within each experiment

| Variant | screen value |
| --- | --- |
| chain 1 T41A | -0.0364 |
| chain 1 Q396A | 0.313 |
| chain 1 A434L | 0.0211 |
| chain 1 R351L | -0.000717 |
| chain 1 G66L | -0.803 |
| chain 1 P156K | -0.552 |
| chain 1 F35A | -0.185 |
| chain 1 H109E | -0.442 |
| chain 1 V328A | -0.205 |
| chain 1 N180L | 0.0119 |
| chain 1 R329E | -0.367 |
| chain 1 Y415A | -0.0219 |
| chain 1 G153A | -0.209 |
| chain 1 G153K | -0.674 |
| chain 1 L102K | -1.19 |
| chain 1 K92L | 0.107 |
| chain 1 R113L | 0.128 |

| Variant | screen value |
| --- | --- |
| chain 1 P258L | -0.67 |
| chain 1 P103K | -1.36 |
| chain 1 G59L | -0.00134 |
| chain 1 K275A | -0.55 |
| chain 1 L178A | -0.664 |
| chain 1 V127L | -0.304 |
| chain 1 A104E | -1.07 |
| chain 1 R163K | -0.504 |
| chain 1 N39E | -0.0832 |
| chain 1 R95K | -0.788 |
| chain 1 R95L | 0.0463 |
| chain 1 Q140A | -0.00146 |
| chain 1 L159A | -0.915 |
| chain 1 S87E | -0.527 |
| chain 1 S87A | 0.0206 |
| chain 1 G189E | -1 |
| chain 1 L261E | -0.624 |

More lines, now with the values ahead:

| screen value | Variant |
| --- | --- |
| 0.112 | chain 1 F348E |
| -0.268 | chain 1 E125L |
| -0.406 | chain 1 G66A |
| -0.17 | chain 1 F35E |
| -0.232 | chain 1 S158A |
| -0.452 | chain 1 S158E |
| 0.457 | chain 1 L62K |
| 0.475 | chain 1 L62A |
| 0.265 | chain 1 G16K |
| -0.247 | chain 1 E314A |
| -0.529 | chain 1 S106K |
| -0.0594 | chain 1 R113K |
| -0.495 | chain 1 I70K |
| -0.501 | chain 1 I70A |
| 0.218 | chain 1 A453E |
| -0.8 | chain 1 P86K |
| -0.0883 | chain 1 E368A |
| -0.355 | chain 1 Q140K |

Same assay, conditions: with perilipin-1, mouse (mPlin1), transient co-transfection, IgG-coated LUMITRAC plates, 2 h at 4 °C, three PBS washes, Bright-Glo luciferase reagent, triplicates per assay, two …, parent: -0.37, not graded, scale: log2 fold change of co-immunoprecipitated luminescence relative to wild-type ATGL within each experiment

| Variant | screen value |
| --- | --- |
| chain 1 T41A | -0.45 |
| chain 1 Q396A | -0.0639 |
| chain 1 A434L | 0.452 |
| chain 1 R351L | -0.298 |
| chain 1 G66L | -0.433 |
| chain 1 P156K | -0.726 |
| chain 1 F35A | -0.158 |
| chain 1 H109E | -0.386 |
| chain 1 V328A | -0.0406 |
| chain 1 N180L | -0.626 |
| chain 1 R329E | -0.537 |
| chain 1 Y415A | -0.00379 |
| chain 1 G153A | -0.215 |
| chain 1 G153K | -0.772 |
| chain 1 L102K | -0.807 |
| chain 1 K92L | 0.166 |
| chain 1 R113L | 0.163 |

| Variant | screen value |
| --- | --- |
| chain 1 P258L | -1.35 |
| chain 1 P103K | -0.898 |
| chain 1 G59L | -0.613 |
| chain 1 K275A | -0.709 |
| chain 1 V127L | -0.288 |
| chain 1 A104E | -0.823 |
| chain 1 R163K | -0.582 |
| chain 1 N39E | -0.558 |
| chain 1 R95K | -0.635 |
| chain 1 R95L | 0.332 |
| chain 1 Q140A | -0.191 |
| chain 1 L159A | 0.395 |
| chain 1 S87E | -0.625 |
| chain 1 S87A | -0.536 |
| chain 1 G189E | -1.43 |
| chain 1 L261E | -1.14 |

Other lines, results leading:

| screen value | Variant |
| --- | --- |
| -0.626 | chain 1 F348E |
| -0.225 | chain 1 E125L |
| 0.198 | chain 1 G66A |
| -0.197 | chain 1 F35E |
| 0.188 | chain 1 S158A |
| -0.376 | chain 1 S158E |
| 0.284 | chain 1 L62K |
| -0.248 | chain 1 L62A |
| 0.718 | chain 1 G16K |
| 0.211 | chain 1 E314A |
| -0.667 | chain 1 S106K |
| 0.272 | chain 1 R113K |
| -0.759 | chain 1 I70K |
| -0.781 | chain 1 I70A |
| 0.0778 | chain 1 A453E |
| -0.498 | chain 1 P86K |
| -0.602 | chain 1 E368A |
| 0.00731 | chain 1 Q140K |

Same assay, conditions: with perilipin-1, mouse (mPlin1), transient co-transfection, IgG-coated LUMITRAC plates, 2 h at 4 °C, three PBS washes, Bright-Glo luciferase reagent, triplicates per assay, two …, parent: -0.37, not graded, value at the no-binding floor (a bound), scale: log2 fold change of co-immunoprecipitated luminescence relative to wild-type ATGL within each experiment

| screen value | Variant |
| --- | --- |
| -1.6 | chain 1 L178A |

Variants of: B2
Test: as above
Conditions: with perilipin-5, mouse (mPlin5), transient co-transfection, IgG-coated LUMITRAC plates, 2 h at 4 °C, three PBS washes, Bright-Glo luciferase reagent, triplicates per assay, two …, parent: 0.15, not graded, scale: log2 fold change of co-immunoprecipitated luminescence relative to wild-type ATGL within each experiment

| Variant | screen value |
| --- | --- |
| chain 1 F35E | -0.313 |
| chain 1 G189E | -1.35 |
| chain 1 S158A | -0.0252 |

The remaining lines, values ahead:

| screen value | Variant |
| --- | --- |
| -0.563 | chain 1 F35A |
| -0.0461 | chain 1 S158E |

Same assay, conditions: with perilipin-5, mouse (mPlin5), transient co-transfection, IgG-coated LUMITRAC plates, 2 h at 4 °C, three PBS washes, Bright-Glo luciferase reagent, triplicates per assay, two …, parent: 0.46, not graded, scale: log2 fold change of co-immunoprecipitated luminescence relative to wild-type ATGL within each experiment

| Variant | screen value |
| --- | --- |
| chain 1 F35E | -0.0352 |
| chain 1 S158A | 0.0162 |

Further lines, results first:

| screen value | Variant |
| --- | --- |
| -0.0452 | chain 1 F35A |
| 0.172 | chain 1 S158E |

Same assay, conditions: with perilipin-5, mouse (mPlin5), transient co-transfection, IgG-coated LUMITRAC plates, 2 h at 4 °C, three PBS washes, Bright-Glo luciferase reagent, triplicates per assay, two …, parent: 0.46, not graded, value at the no-binding floor (a bound), scale: log2 fold change of co-immunoprecipitated luminescence relative to wild-type ATGL within each experiment

| screen value | Variant |
| --- | --- |
| -1.51 | chain 1 G189E |
